Where two headings read alike, the source gives them in different places.
B1: ADI-20227 (antibody, human IgG1, V domains shown)
VH: QVQLQESGPGLVKPSQTLSLTCTVSGGSIVSGGLYWSWIRQHPGKGLEWIGYIYYAGVTYYNPSLKSRVTISVDTSKNQFSLKLSSVTAADTAVYYCARGPRMGLAGMDVWGQGTTVTVSS
VL: DIQMTQSPSSVSASVGDRVTITCRASQGISSWLAWYQQKPGKAPKLLIYAASSLQSGVPSRFSGSGSGTDFTLTISSLQPEDFATYYCQQANSFPITFGGGTKVEIK
notes: Tested as IgG; also called PD-L1-C1-2; clone family cLC
B2: ADI-20227 Fab (Fab, V domains shown)
VH: B1 VH
VL: B1 VL
B3: ADI-20803 (antibody, human IgG1, V domains shown)
VH: QVQLVQSGAEVKKPGSSVKVSCKASGGTFRLYAISWVRQAPGQGLEWMGSIIPGFGSANYAQKFQGRVTITADESTSTAYMELSSLRSEDTAVYYCARDGGGGTSAYSFDPWGQGTLVTVSS
VL: EIVLTQSPATLSLSPGERATLSCRASQSVSSYLAWYQQKPGQAPRLLIYDASNRATGIPARFSGSGSGTDFTLTISSLEPEDFAVYYCQQSINFPYTFGGGTKVEIK
notes: Tested as IgG; also called PDL1-1-12; PLD1-1-12
B4: ADI-20803 Fab (Fab, V domains shown)
VH: B3 VH
VL: B3 VL
notes: also called Fab of ADI-20803
B5: ADI-16403 (antibody, human IgG1, V domains shown)
VH: EVQLVESGGGLVQPGGSLRLSCAASGFTFSSYWMSWVRQAPGKGLEWVANIKSDGSEKYYVDSVKGRFTISRDNAKNSLYLQMNSLRAEDTAVYYCARVTYWADYMDVWGKGTTVTVSS
VL: DIQMTQSPSTLSASVGDRVTITCRASQSISSWLAWYQQKPGKAPKLLIYKASSLESGVPSRFSGSGSGTEFTLTISSLQPDDFATYYCQQSGSLPPTFGGGTKVEIK
notes: Tested as IgG; also called PD-L1-31; clone family 35
B6: ADI-16403 Fab (Fab, V domains shown)
VH: B5 VH
VL: B5 VL
notes: also called Fab of ADI-16403
B7: ADI-20799 (antibody, human IgG1, V domains shown)
VH: QVQLVQSGAEVKKPGASVKVSCKASGYTFTGVYMHWVRQAPGQGLEWMGGIFPIGGTANYAQKFQGRVTITADESTSTAYMELSSLRSEDTAVYYCARDRTSGALYWGQGTLVTVSS
VL: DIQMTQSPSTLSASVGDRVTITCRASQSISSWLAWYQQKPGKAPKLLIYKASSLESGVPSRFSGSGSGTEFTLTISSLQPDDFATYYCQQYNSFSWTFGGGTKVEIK

Legend:
PD-L1 on CHO-PD-L1 cells [1] = molecular target: T1, PD-L1 on CHO-PD-L1 cells (human, UniProt Q9NZQ7 19-290); experiment: cell-based or functional assay
T1 sequence (Q9NZQ7 19-290 limits assumed): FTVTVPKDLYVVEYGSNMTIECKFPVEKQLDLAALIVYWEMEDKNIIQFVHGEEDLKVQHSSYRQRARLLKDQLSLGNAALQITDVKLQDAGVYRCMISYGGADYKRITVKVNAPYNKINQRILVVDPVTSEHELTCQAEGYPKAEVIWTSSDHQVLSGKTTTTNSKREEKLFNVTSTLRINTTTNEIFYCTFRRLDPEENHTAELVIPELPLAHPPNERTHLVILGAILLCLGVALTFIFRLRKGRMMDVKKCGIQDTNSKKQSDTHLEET

Human PD-L1-Fc [2] = molecular target: T2, Human PD-L1-Fc (human, UniProt Q9NZQ7 19-238); experiment: ForteBio Octet BLI; IgG on AHQ sensors, 100 nM antigen; avid
T2 construct: also called Fc fusion antigen; not shown: Fc part, not described
T2 sequence (Q9NZQ7 19-238 limits assumed): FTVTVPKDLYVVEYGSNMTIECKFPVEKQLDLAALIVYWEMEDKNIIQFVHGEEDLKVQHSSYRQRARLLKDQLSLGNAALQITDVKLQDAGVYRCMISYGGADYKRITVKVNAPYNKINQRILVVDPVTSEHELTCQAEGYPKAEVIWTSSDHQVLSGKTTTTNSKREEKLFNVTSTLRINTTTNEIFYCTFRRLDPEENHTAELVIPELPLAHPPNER
Procedure: (§1) ForteBio K_D measurements—ForteBio affinity measurements were performed on an Octet RED384 generally as previously described (see, e.g., Estep et al., Mabs 5(2), 270-278 (2013)). Briefly, ForteBio affinity measurements were performed by loading IgGs on-line onto AHQ sensors. Sensors were equilibrated off-line in assay buffer for 30 min and then monitored on-line for 60 seconds for baseline establishment. Sensors with loaded IgGs were exposed to 100 nM antigen for 3 minutes, and afterwards were transferred to assay buffer for 3 min for off-rate measurement. For monovalent affinity assessment Fabs were used instead of IgGs. For this assessment the unbiotinylated Fc fusion antigen was loaded on-line onto the AHQ sensors. Sensors were equilibrated off-line in assay buffer for 30 min and then monitored on-line for 60 seconds for baseline establishment. Sensors with loaded antigen were exposed to 100 nM Fab for 3 minutes, and afterwards they were transferred to assay buffer for 3 min for off-rate measurement. All kinetics were analyzed using the 1:1 binding model.

Cyno PD-L1-Fc = Cyno PD-L1-Fc (cyno, UniProt G7PSE7 19-238); experiment: as above
Chain of Cyno PD-L1-Fc (G7PSE7 entry or part of it limits assumed): as the sequence (Q9NZQ7 19-238 limits assumed) above, with A33T, A34S, S62N, R68Q, Q82R, F173L, T185A, T192I, H215L counted along it
Procedure: as §1

Mouse PD-L1-Fc = molecular target: T3, Mouse PD-L1-Fc (mouse, UniProt Q9EP73 19-238, limits assumed); experiment: as above
T3 construct: not shown: Fc part, not described
T3 sequence (Q9EP73 19-238 limits assumed): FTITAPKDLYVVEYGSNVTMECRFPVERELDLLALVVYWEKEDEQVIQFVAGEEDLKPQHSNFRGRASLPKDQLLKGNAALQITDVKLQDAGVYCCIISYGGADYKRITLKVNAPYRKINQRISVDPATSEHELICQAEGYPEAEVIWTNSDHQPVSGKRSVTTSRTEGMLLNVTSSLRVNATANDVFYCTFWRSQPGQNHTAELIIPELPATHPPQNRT
Procedure: as §1

Human PD-L1-HIS [3] = molecular target: T4, Human PD-L1-HIS (human, UniProt Q9NZQ7 19-238); experiment: Octet tandem competition on HIS-tagged human PD-L1; competitor Avelumab
T4 construct: also called HIS-tagged protein (human PD-L1)
T4 sequence (Q9NZQ7 19-238 limits assumed): as the sequence (Q9NZQ7 19-238 limits assumed) above
Procedure: (§2) Epitope binning of PD-L1 antibodies. Binding specificity of a variety of PD-L1 antibodies were compared using a binding competition assay conducted using the ForteBio Octet® platform. Target HIS-tagged protein (human PD-L1) is loaded onto pre-charged Nickel NTA Biosensors at 1 μg/mL. The first Ab1 is saturated on the target-loaded biosensor at 100 nM, and a reference (bufer only) well is included to determine maximal Ab2 binding signal. The second Ab2 is screened for binding signal also at 100 nM, and Ab1 is included to determine background self-blocking signal. Data Analysis HT 9.0 software is used to generate a matrix of raw signal response of Ab2 binding that is then transformed to be expressed as a percentage of the unblocked Ab2 binding signal. Less than 15% response is considered competitive blocking.

Human PD-L1-HIS [4] = molecular target: T4, Human PD-L1-HIS; experiment: Octet tandem competition on HIS-tagged human PD-L1; competitor Durvalumab
Procedure: as §2

Human PD-L1-HIS [5] = molecular target: T4, Human PD-L1-HIS; experiment: Octet tandem competition on HIS-tagged human PD-L1; competitor Atezolizumab
Procedure: as §2

Human PD-L1-Fc [6] = molecular target: T2, Human PD-L1-Fc; experiment: ForteBio Octet BLI (row ForteBio-KD); antigen and unit inferred, taken from Table 5
PD-L1 on CHO-PD-L1 cells [7] = molecular target: T1, PD-L1 on CHO-PD-L1 cells; experiment: upper panel, MFI against Ab (nM): flow cytometry on CHO cells with PD-L1, anti-human IgG1-PE secondary. The panel has no title; human PD-L1 follows from paragraph 175 (all three bind human PD-L1)
Procedure: (§3) Antibody Activity. Varying concentrations of PD-L1 antibodies, with human IgG1 backbones, were added to CHO cells expressing either human or murine PD-L1 (CHO-PD-L1 cells). Binding was detected by addition of anti-human IgG1 secondary antibody conjugated to phycoerythrin. FACS analysis was performed, detecting phycoerythrin to determine fluorescence activity at a variety of antibody concentrations. EC50 was calculated using GraphPad Prism® software.

mouse PD-L1 protein [8] = molecular target: T5, mouse PD-L1 protein (mouse, UniProt Q9EP73 19-238, limits assumed); experiment: lower panel, MFI against Ab (nM): flow cytometry on CHO cells with murine PD-L1, anti-human IgG1-PE secondary. The panel has no title; murine PD-L1 follows from paragraph 175 (only ADI-20227 binds murine PD-L1 well)
T5 construct: also called murine PD-L1
T5 sequence (Q9EP73 19-238 limits assumed): as the sequence (Q9EP73 19-238 limits assumed) above
Procedure: as §3

Human PD-L1-Fc [9] = molecular target: T2, Human PD-L1-Fc; experiment: ForteBio Octet BLI; Fc fusion antigen on AHQ sensors, 100 nM Fab; monovalent
Procedure: as §1

PD-L1 on CHO-PD-L1 cells [10] = molecular target: T1, PD-L1 on CHO-PD-L1 cells; experiment: cell-based or functional assay; remark: listed apart in the source
Human PD-L1-HIS [11] = molecular target: T4, Human PD-L1-HIS; experiment: ForteBio Octet BLI; IgG on AHQ sensors, 100 nM antigen; column head says Avid
Procedure: as §1

PD-L1 on CHO-PD-L1 cells [12] = molecular target: T1, PD-L1 on CHO-PD-L1 cells; experiment: cell-based or functional assay; remark: listed apart in the source
mouse PD-L1 protein [13] = molecular target: T5, mouse PD-L1 protein; experiment: lower panel, MFI against Ab (nM): flow cytometry on CHO cells with murine PD-L1. The panel has no title; murine PD-L1 follows from paragraph 175
Procedure: as §3

Row | Binder | Kd (Human PD-L1-Fc [2]) [nM] | Kd (Cyno PD-L1-Fc) [nM] | percentage of the unblocked Ab2 binding signal (Human PD-L1-HIS [3]) [%] | percentage of the unblocked Ab2 binding signal (Human PD-L1-HIS [4]) [%] | percentage of the unblocked Ab2 binding signal (Human PD-L1-HIS [5]) [%] | EC50 (PD-L1 on CHO-PD-L1 cells [7]) [nM] | Kd (Human PD-L1-Fc [9]) [nM] | other results
1 | B1 | 0.179 | 0.192 | 0.37 | 0.65 | -0.52 | 1.12 | – | EC50 for restoration of PD-L1:PD-1 repressed Jurkat T cell activity (row label IC50) (PD-L1 on CHO-PD-L1 cells [1]): 0.295 nM; Kd (Mouse PD-L1-Fc): 0.101 nM; Kd (Human PD-L1-Fc [6]): 0.179 nM; EC50 (mouse PD-L1 protein [8]): 1.13 nM
2 | B2 | – | – | – | – | – | – | 0.915 | –
3 | B3 | 0.188 | 0.196 | 3.14 | 2.38 | 1.86 | 0.7 | – | EC50 (read off the curve) (PD-L1 on CHO-PD-L1 cells [10]): ~3 nM; Kd (Mouse PD-L1-Fc): 5.65 nM; Kd (Human PD-L1-HIS [11]): 0.0092 nM
4 | B4 | – | – | – | – | – | – | 0.226 | –
5 | B5 | 0.317 | 0.792 | 2.39 | 1.03 | 0.75 | – | – | EC50 (read off the curve) (PD-L1 on CHO-PD-L1 cells [12]): ~2 nM; binding result (Mouse PD-L1-Fc): no binding (tested: 100 nM); Kd (Human PD-L1-HIS [11]): 0.328 nM
6 | B6 | – | – | – | – | – | – | 0.935 | –
7 | B7 | – | – | – | – | – | 1.31 | – | EC50 (read off the curve) (PD-L1 on CHO-PD-L1 cells [12]): ~0.5 nM; binding result (mouse PD-L1 protein [13]): no binding (tested: about 700 nM)

Reference: patent US12325747 (University of Texas, dated 2025)
